In US20160122421A1:
Ends that are not written are not given here.

Biological target: humanized variant of IPN002 (hu-IPN002)
Assay: competition ELISA; competitor: biotin-Tau 13-24 on hu-IPN002

Binder: DHAGTYGLGDRK (also: biotinylated, position not given here, also used non-biotinylated) [Peptide 1 (Tau amino acids 13-24)]
- IC50 (read off the curve): 400 nM
